Publication PMC12420816 (Nature Communications, 2025)

B1: MERS-CoV mature nsp7, released from nsp7-11 by SARS-CoV-2 M^pro (natural protein)
chain: SKLTDLKCTSVVLLSVLQQLHLEANSRAWAFCVKCHNDILAATDPSEAFEKFVSLFATLMTFSGNVDLDALASDIFDTPSVLQ

Assays:
[1] = target: SARS-CoV-2 nsp7-11 polyprotein, tag-free with native (authentic) termini (SARS-CoV-2); assay: native MS
[2] = target: the molecule itself; assay: native MS

Molecule | stoichiometry N [1] | stoichiometry N [2]
SARS-CoV-2 nsp7-11 polyprotein, tag-free with native (authentic) termini (domain or fragment) | 2 | –
B1 | – | 2
